# According to PMC3701638:
# Target: α-casein
row,Substance,"Km of α-casein phosphorylation by the kinase (in vitro kinase assay, Michaelis-Menten fit)"
1,"GST-CK1δ (FP449), wild-type full length rat CK1δ (from UniProt Q06486 1-415) (enzyme)",4.84 µM
2,"GST-CK1δ^(S328A, S370A) (FP1292) (from UniProt Q06486 1-415) (enzyme)",5.31 µM
3,GST-CK1δ^S328A (FP1267) (from UniProt Q06486 1-415) (enzyme),5.49 µM
4,GST-CK1δ^T397A (FP1184) (from UniProt Q06486 1-415) (enzyme),7.2 µM

# Continued, values first:
row,"Km of α-casein phosphorylation by the kinase (in vitro kinase assay, Michaelis-Menten fit)",Substance
1,7.74 µM,"GST-CK1δ^(S328A, S370A, T397A) (FP1293) (from UniProt Q06486 1-415) (enzyme)"
2,6.63 µM,"GST-CK1δ^(S328A, T397A) (FP1268) (from UniProt Q06486 1-415) (enzyme)"
3,7.38 µM,GST-CK1δ^S370A (FP1030) (from UniProt Q06486 1-415) (enzyme)
